Values of other authors, collected in PMC7294537.

Key:
[1] = target: CUE domain CUE (Saccharomyces cerevisiae) (UniProt P36075)
lysozyme (Gallus gallus) = lysozyme (Gallus gallus) (UniProt P00698)

CUE domain CUE (Saccharomyces cerevisiae), sequence (P36075 8-51): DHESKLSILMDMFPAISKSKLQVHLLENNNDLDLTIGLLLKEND
ubiquitin, sequence (P0CG63 1-76): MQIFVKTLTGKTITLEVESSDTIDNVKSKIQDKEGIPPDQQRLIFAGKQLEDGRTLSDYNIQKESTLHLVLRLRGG
lysozyme, sequence (P00698 19-147): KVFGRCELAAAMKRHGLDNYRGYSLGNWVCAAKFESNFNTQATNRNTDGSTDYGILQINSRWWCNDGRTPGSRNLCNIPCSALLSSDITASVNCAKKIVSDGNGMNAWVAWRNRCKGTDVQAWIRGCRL

Substance | Kd [1] | Kd (lysozyme (Gallus gallus))
ubiquitin (from UniProt P0CG63) | 155 µM | 
lysozyme (from UniProt P00698) |  | 2710 µM
